Blank lines part the entries; values can stand above or below the binder they belong to.
How the values were obtained:
human LILRB2 (human) [1] = molecular target: human LILRB2 (human) (UniProt Q8N423); test: BLI Octet sandwich binning; competitor (antibody #1 on sensor) J-03
human LILRB2 (human) [2] = molecular target: human LILRB2 (human) (UniProt Q8N423); test: BLI Octet sandwich binning; competitor (antibody #1 on sensor) J-04
human LILRB2 (human) [3] = molecular target: human LILRB2 (human) (UniProt Q8N423); test: BLI Octet sandwich binning; competitor (antibody #1 on sensor) J-07
human LILRB2 (human) [4] = molecular target: human LILRB2 (human) (UniProt Q8N423); test: BLI Octet sandwich binning; competitor (antibody #1 on sensor) J-19
human LILRB2 (human) [5] = molecular target: human LILRB2 (human) (UniProt Q8N423); test: BLI Octet sandwich binning; competitor (antibody #1 on sensor) J-11
human LILRB2 (human) [6] = molecular target: human LILRB2 (human) (UniProt Q8N423); test: BLI Octet sandwich binning; competitor (antibody #1 on sensor) J-16
human LILRB2 (human) [7] = molecular target: human LILRB2 (human) (UniProt Q8N423); test: BLI Octet sandwich binning; competitor (antibody #1 on sensor) J-17
human LILRA4 (human) = human LILRA4 (human) (UniProt P59901); test: flow cytometry, LILRA4 CHOs
human LILRB4 (human) = human LILRB4 (human) (UniProt Q8NHJ6); test: flow cytometry, LILRB4 CHOs
human LILRA5 (human) = human LILRA5 (human) (UniProt A6NI73); test: flow cytometry, LILRA5 CHOs
human LILRB2 (human) [8] = molecular target: human LILRB2 (human) (UniProt Q8N423); test: SPR, SierraSensor MASS-2; antibody captured on anti-human Fc chip, LILRB2 65 to 0.089 nM, duplicates
human LILRB2 (human) [9] = molecular target: human LILRB2 (human) (UniProt Q8N423); test: SPR, SierraSensor MASS-2; antibody captured on anti-human Fc chip, LILRB2 65 to 0.089 nM, triplicates
human LILRB2 (human) [10] = molecular target: human LILRB2 (human) (UniProt Q8N423); test: SPR, SierraSensor MASS-2; antibody captured on anti-human Fc chip, LILRB2 65 to 0.089 nM, duplicates; the reference itself
human LILRB2 (human) [11] = molecular target: human LILRB2 (human) (UniProt Q8N423); test: BLI ForteBio Octet Red96; antibody on anti-human capture sensor, LILRB2 at 50 nM and 5 nM
human LILRA1 (human) = human LILRA1 (human) (UniProt O75019); test: flow cytometry, LILRA1 CHOs
human LILRA1 (human), sequence (O75019 17-489 limits assumed): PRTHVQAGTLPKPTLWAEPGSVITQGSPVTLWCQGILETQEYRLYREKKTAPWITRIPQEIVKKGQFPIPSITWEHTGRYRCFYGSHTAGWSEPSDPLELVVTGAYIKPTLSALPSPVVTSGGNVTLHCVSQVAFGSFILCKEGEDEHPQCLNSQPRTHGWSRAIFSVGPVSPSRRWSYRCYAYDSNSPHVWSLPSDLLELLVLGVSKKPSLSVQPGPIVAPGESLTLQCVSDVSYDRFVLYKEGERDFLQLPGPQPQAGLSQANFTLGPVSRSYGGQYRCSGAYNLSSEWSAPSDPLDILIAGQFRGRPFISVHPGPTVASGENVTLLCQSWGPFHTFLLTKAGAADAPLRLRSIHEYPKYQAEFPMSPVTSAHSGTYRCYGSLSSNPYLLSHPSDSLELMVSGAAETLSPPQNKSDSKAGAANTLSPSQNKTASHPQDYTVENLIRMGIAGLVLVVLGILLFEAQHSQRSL

human LILRA4 (human), sequence (P59901 other isoform, or with tags, fused parts or gaps limits assumed): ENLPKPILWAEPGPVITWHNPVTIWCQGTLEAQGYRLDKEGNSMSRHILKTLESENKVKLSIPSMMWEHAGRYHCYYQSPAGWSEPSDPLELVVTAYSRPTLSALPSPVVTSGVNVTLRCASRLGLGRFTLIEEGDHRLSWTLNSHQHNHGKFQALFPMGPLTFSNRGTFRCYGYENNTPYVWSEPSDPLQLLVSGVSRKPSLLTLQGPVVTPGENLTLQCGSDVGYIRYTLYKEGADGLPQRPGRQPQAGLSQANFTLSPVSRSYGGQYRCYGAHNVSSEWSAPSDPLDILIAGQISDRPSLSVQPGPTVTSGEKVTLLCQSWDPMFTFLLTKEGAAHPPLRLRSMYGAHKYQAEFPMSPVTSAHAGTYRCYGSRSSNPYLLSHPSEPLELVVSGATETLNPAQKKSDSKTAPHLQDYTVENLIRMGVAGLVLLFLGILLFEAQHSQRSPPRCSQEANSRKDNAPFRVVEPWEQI
human LILRA5 (human), sequence (A6NI73 42-299 limits assumed): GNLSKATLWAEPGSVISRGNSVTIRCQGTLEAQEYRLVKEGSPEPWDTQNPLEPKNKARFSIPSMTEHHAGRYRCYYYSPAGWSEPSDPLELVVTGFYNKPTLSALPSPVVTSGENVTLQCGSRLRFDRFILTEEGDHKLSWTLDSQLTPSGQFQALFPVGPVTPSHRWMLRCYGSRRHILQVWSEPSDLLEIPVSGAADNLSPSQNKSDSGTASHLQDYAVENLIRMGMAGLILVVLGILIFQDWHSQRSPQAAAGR

B1: J-11 (antibody, human IgG4 S228P, kappa, V domains shown)
VH: QVQLQQSGAELMKPGASVKLSCKATGYILTGYWIEWVKQRPGHGLEWIGEILPGSGSTNYNENFKGKATFTADTSSNTAYMQLSSLTTEDSAIYYCARAVLGYFDYWGQGTTLTVSS
VL: DIVMTQSHKFMSTSVGDRVSITCKASQDVSTAVAWYQQKPGQSPKLLIYWASTRHTGVPDRFTGSGSGTDYTLTISSVQAEDLALYYCHQHYSTYTFGGGTKLEIKR
response of antibody #2 (human LILRB2 (human) [1]): 0.01 | response of antibody #2 (human LILRB2 (human) [2]): 0.51 | response of antibody #2 (human LILRB2 (human) [3]): 0.1 | response of antibody #2 (human LILRB2 (human) [4]): 0.28 | response of antibody #2 (human LILRB2 (human) [5]): -0.24 | response of antibody #2 (human LILRB2 (human) [6]): 0.3 | response of antibody #2 (human LILRB2 (human) [7]): -0.27

B2: J-19 (antibody, human IgG4 S228P, kappa, V domains shown)
VH: QVTLKESGPGILQPSHTLSLTCSFSGFSLNTYAMGVSWIRQPSGKGLEWLASIWWNGNKYNNPSLKSRLTVSKDTSNNQAFLKVTSVDTADTATYYCAHSRIIRFTDYVMDAWGQGASVTVSS
VL: DIQMTQSPASLSTFLGEPVTIECRASEDIYNDLAWYQQKPGKSPQLLIYNANSLHTGVPSRFSGSGSGTQYSLKINSLQSEDVASYFCQQYYDYPLTFGSGTKLEIKR
response of antibody #2 (human LILRB2 (human) [1]): 0.15 | response of antibody #2 (human LILRB2 (human) [2]): 0.67 | response of antibody #2 (human LILRB2 (human) [3]): 0.27 | response of antibody #2 (human LILRB2 (human) [4]): -0.21 | response of antibody #2 (human LILRB2 (human) [5]): 0.71 | response of antibody #2 (human LILRB2 (human) [6]): 0.47 | response of antibody #2 (human LILRB2 (human) [7]): -0.1

B3: J-04 (antibody, human IgG4 S228P, kappa, V domains shown)
VH: QVQLQQSGAELVRPGASVTLSCKASGYTFADYEIHWVKQTPVHGLEWIGAIDPETGGTAYNQKFKGKAILTADKSSSTAYMELRSLTSEDSAVYYCTRYYDYDDAMDYWGQGTSVTVSS
VL: QIVLTQSPAIMSASPGEKVTMTCSASSSVSFMHWYQQKSGTSPKRWIYGTSKLASGVPARFSGSGSGTSYSLTISSMEAEDAATYYCQQWNGNPFTFGSGTKLETKR
response of antibody #2 (human LILRB2 (human) [1]): -0.07 | response of antibody #2 (human LILRB2 (human) [2]): -0.1 | response of antibody #2 (human LILRB2 (human) [3]): -0.3 | response of antibody #2 (human LILRB2 (human) [4]): 0.54 | binding (fold over iso) (fold over iso) (human LILRA4 (human)): 2.07 | response of antibody #2 (human LILRB2 (human) [5]): 0.54 | response of antibody #2 (human LILRB2 (human) [6]): -0.31 | response of antibody #2 (human LILRB2 (human) [7]): 0.46

B7: J-19.h1 (antibody, human IgG4 S228P, kappa, V domains shown)
VH: QITLKESGPTLVKPTQTLTLTCTFSGFSLNTYAMGVSWIRQPPGKALEWLASIWWNGNKYNNPSLKSRLTVTKDTSKNQVVLTMTNMDPVDTATYYCAHSRIIRFTDYVMDAWGQGTLVTVSS
VL: DIQMTQSPSSLSTSVGDRVTITCRASEDIYNDLAWYQQKPGKAPKLLIYNANSLHTGVASRFSGSGSGTDFTFTISSLQPEDVATYFCQQYYDYPLTFGQGTKLEIKR
Fold difference over J-19.h1 (human LILRB2 (human) [10]): 1 fold | Kd (human LILRB2 (human) [8]): 2.49 nM | koff (human LILRB2 (human) [8]): 0.00176 s⁻¹ | kon (human LILRB2 (human) [8]): 705000 M⁻¹ s⁻¹

B9: J-17 (antibody, human IgG4 S228P, kappa, V domains shown)
VH: QIQLVQSGPELKKPGETVKISCKASGYTFTTYGLSWVKQTPGKGLKWMGWINTYSGVPTYTDDFKGRFAFSLETSASTAYLQINNLKNEDTATYFCARPYDFDQVGFAYWGQGTLVTVSA
VL: SIVMTQTPKFLLVSAGDRVSITCKASQTVSSDVAWYQQKAGQSPKLLIYYASNRYTGVPDRFTGSGYGTDFTFTISTVQAEDLAVYFCQQDYSSPFTFGGGSKLEIKR
response of antibody #2 (human LILRB2 (human) [1]): 0.05 | response of antibody #2 (human LILRB2 (human) [2]): 0.42 | response of antibody #2 (human LILRB2 (human) [3]): 0.04 | binding (fold over iso) (fold over iso) (human LILRA1 (human)): 7.31 | response of antibody #2 (human LILRB2 (human) [4]): -0.21 | response of antibody #2 (human LILRB2 (human) [5]): -0.39 | response of antibody #2 (human LILRB2 (human) [6]): 0.09 | response of antibody #2 (human LILRB2 (human) [7]): -0.11

Further lines, results first:

binding (fold over iso) (fold over iso) (human LILRB4 (human)): 2.02 | binding (fold over iso) (fold over iso) (human LILRA5 (human)): 2.14
B4: J-19.h4 (antibody, human IgG4 S228P, kappa, V domains shown)
VH: QVTLKESGPALVKPTHTLTLTCTFSGFSLNTYAMGVSWIRQPPGKALEWLASIWWNGNKYNNPSLKSRLTISKDTSKNQVVLTMTNMDPEDTATFYCAHSRIIRFTDYVMDAWGRGTTVTVSS
VL: DIVMTQSPSSLSASVGDTVTITCRASEDIYNDLAWYQQKPGKAPQLLLYNANSLHTGVPSRFSGSGSGTDYTLTISTLQPEDFATYYCQQYYDYPLTFGPGTKVHIKR

Fold difference over J-19.h1 (human LILRB2 (human) [8]): 2.73 fold | Kd (human LILRB2 (human) [8]): 0.912 nM | koff (human LILRB2 (human) [8]): 0.000788 s⁻¹ | kon (human LILRB2 (human) [8]): 865000 M⁻¹ s⁻¹
B5: J-19.h7 (antibody, human IgG4 S228P, kappa, V domains shown)
VH: QITLKESGPTLVKPTQTLTLTCTFSGFSLNTYAMGVSWIRQPPGKALEWLASIWWNGNKYNNPSLKSRLTVTKDTSKNQVVLTMTNMDPVDTATYYCAHSRIIEFTDYVMDAWGQGTLVTVSS
VL: DIQMTQSPSSLSTSVGDRVTITCRASEDIYNDLAWYQQKPGKAPKLLIYNANSLHTGVASRFSGSGSGTDFTFTISSLQPEDVATYFCQQYYDYPLTFGQGTKLEIKR

Fold difference over J-19.h1 (human LILRB2 (human) [9]): 3.47 fold | Kd (human LILRB2 (human) [9]): 0.718 nM | koff (human LILRB2 (human) [9]): 0.000592 s⁻¹ | kon (human LILRB2 (human) [9]): 825000 M⁻¹ s⁻¹
B6: J-19.h6 (antibody, human IgG4 S228P, kappa, V domains shown)
VH: QITLKESGPTLVKPTQTLTLTCTFSGFSLNTYAMGVSWIRQPPGKALEWLASIWWNGNKYNNPSLKSRLTVTKDTSKNQVVLTMTNMDPVDTATYYCAHSRIIDFTDYVMDAWGQGTLVTVSS
VL: DIQMTQSPSSLSTSVGDRVTITCRASEDIYNDLAWYQQKPGKAPKLLIYNANSLHTGVASRFSGSGSGTDFTFTISSLQPEDVATYFCQQYYDYPLTFGQGTKLEIKR

Fold difference over J-19.h1 (human LILRB2 (human) [9]): 1.91 fold | Kd (human LILRB2 (human) [9]): 1.31 nM | koff (human LILRB2 (human) [9]): 0.00115 s⁻¹ | kon (human LILRB2 (human) [9]): 876000 M⁻¹ s⁻¹ | fold higher affinity compared to J-19.h1 (human LILRB2 (human) [11]): 2 fold
B8: J-19.h5 (antibody, human IgG4 S228P, kappa, V domains shown)
VH: QITLKESGPTLVKPTQTLTLTCTFSGFSLNTYAMGVSWIRQPPGKALEWLASIWWNGNKYNNPSLKSRLTVTKDTSKNQVVLTMTNMDPVDTATYYCAHSRIIAFTDYVMDAWGQGTLVTVSS
VL: DIQMTQSPSSLSTSVGDRVTITCRASEDIYNDLAWYQQKPGKAPKLLIYNANSLHTGVASRFSGSGSGTDFTFTISSLQPEDVATYFCQQYYDYPLTFGQGTKLEIKR

— patent publication US20200339690A1
